No end group written: not given here.
What was measured:
[1] = molecular target: T1, Biotinylated Aβ peptide with amino acids 24-33 and a glycine at the C-terminus (also: biotinylated (position not given here)); test: ELISA, biotinylated peptide on streptavidin-coated plate, goat anti-human kappa HRP
T1 peptide: VGSNKGAIIGG
Protocol: (§1) Various Aβ peptides (assigned SEQ ID NO:18-26, 31, and 27-29 from top to bottom sequences) were immobilized on ELISA plates. Antibodies were incubated for 1 hour with various immobilized peptides. Antibody 6G bound to immobilized Aβ peptides were measured using goat anti-human kappa HRP conjugated secondary antibody. […] “NB” refers to no binding detected.
(§2) ELISA was used for measuring binding of antibody 6G and variants to biotinylated Aβ peptides. NUNC maxisorp plates were coated with 6 ug/ml of streptavidin (Pierce, 21122) in PBS pH 7.4 for more than 1 h at 4° C. Plates were blocked with 1% BSA in PBS buffer pH 7.4. After washing, biotinylated Aβ peptides in PBS pH 7.4 were incubated 1 hour at room temperature. Primary antibody (from cell supernatants, serum containing anti-Aβ antibody, or purified full antibody or Fabs at desired dilution) was incubated with the immobilized Aβ peptides for 1 h at room temperature. After washing, plates were incubated with secondary antibody, a HRP conjugated goat anti-human kappa chain antibody (MP Biomedicals, 55233) at 1:5000 dilution. After washing, bound secondary antibody was measured by adding TMB substrate (KPL, 50-76-02, 50-65-02). HRP reaction was stopped by adding 1M phosphoric acid and absorbance at 450 nm was measured.

[2] = molecular target: T2, Biotinylated Aβ peptide with amino acids 27-41 and a glycine at the C-terminus (also: biotinylated (position not given here)); test: as above
T2 peptide: NKGAIIGLMVGGVVIG
Protocol: as §1, §2

[3] = molecular target: T3, Biotinylated Aβ peptide with amino acids 26-35 and a glycine at the C-terminus (also: biotinylated (position not given here)); test: as above
T3 peptide: SNKGAIIGLMG
Protocol: as §1, §2

[4] = molecular target: T4, Biotinylated Aβ peptide with amino acids 19-33 and a glycine at the C-terminus (also: biotinylated (position not given here)); test: as above
T4 peptide: FFAEDVGSNKGAIIGG
Protocol: as §1, §2

[5] = molecular target: T5, 28 KGAIIGLMVGGVVIAG (also: biotinylated (position not given here)); test: as above
T5 construct: It differs from m21 (Aβ peptide 28-42, not biotinylated, no added glycine); also called Biotinylated Aβ peptide with amino acids 28-42 and a glycine at the C-terminus; 28-42 15-mer
T5 peptide: KGAIIGLMVGGVVIAG
Protocol: as §1, §2

[6] = molecular target: T6, Biotinylated Aβ peptide with amino acids 26-40 and a glycine at the C-terminus (also: biotinylated (position not given here)); test: as above
T6 peptide: SNKGAIIGLMVGGVVG
Protocol: as §1, §2

[7] = molecular target: T7, Aβ1-42; test: ELISA, nonbiotinylated peptide on plate
T7 construct: also called 1-42 (WT); Aβ peptide 1-42
Protocol: (§3) ELISA was used for measuring binding of antibody 6G and variants to nonbiotinylated Aβ peptides. NUNC maxisorp plates were coated with 2.5 ug/ml of Aβ peptides in PBS pH 7.4 for more than 1 hour at 4° C. Plates were blocked with 1% BSA in PBS buffer pH 7.4. Primary antibody (from cell supernatants, serum containing anti-Aβ antibody, or purified full antibody or Fabs at desired dilution) was incubated with the immobilized Aβ peptides for 1 h at room temperature. After washing, the plates were incubated with secondary antibody, a HRP conjugated goat anti-human kappa chain antibody (MP Biomedicals, 55233) at 1:5000 dilution. After washing, bound secondary antibody was measured by adding TMB substrate (KPL, 50-76-02, 50-65-02). The HRP reaction was stopped by adding 1M phosphoric acid and absorbance at 450 nm was measured.
(§4) All amino acid substitutions of the variants shown in Table 3 are described relative to the sequence of 6G. Binding was determined by ELISA described above with nonbiotinylated Aβ₁₋₄₀ or Aβ₁₋₄₂ immobilized on the surface of an ELISA plate.

[8] = molecular target: T8, Aβ1-40; test: ELISA, nonbiotinylated peptide on plate
T8 construct: also called 1-40 (WT); Aβ peptide 1-40
Protocol: as §3, §4

T7 sequence (peptide, as listed by the source): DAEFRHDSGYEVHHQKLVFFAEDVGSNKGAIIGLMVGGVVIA
T8 sequence (peptide, as listed by the source): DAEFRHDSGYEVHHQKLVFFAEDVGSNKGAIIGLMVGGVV

B1: antibody 6G (antibody, V domains shown)
VH: QVQLVQSGAEVKKPGASVKVSCKASGYTFTTYAIHWVRQAPGQGLEWMGFTSPYSGVSNYNQKFKGRVTMTRDTSTSTVYMELSSLRSEDTAVYYCARFDNYDRGYVRDYWGQGTLVTVSS
VL: DIVMTQSPDSLAVSLGERATINCRASESVDNDRISFLNWYQQKPGQPPKLLIYAATKQGTGVPDRFSGSGSGTDFTLTISSLQAEDVAVYYCQQSKEFPWSFGGGTKVEIKR
notes: Full antibody; human IgG2a constant region with A330P331 to S330S331, human kappa; also called 6G monoclonal antibody; 6G full antibody
B1: no binding (tested: 10 ug/ml) [1]; no binding (tested: 10 ug/ml) [2]; no binding (tested: 10 ug/ml) [3]. B1: no binding (tested: 10 ug/ml) [4]; no binding (tested: 10 ug/ml) [5]; no binding (tested: 10 ug/ml) [6].

B2: 6G light chain mutant variant 7F (Q94K) (antibody, V domains shown)
VH: QVQLVQSGAEVKKPGASVKVSCKASGYTFTTYAIHWVRQAPGQGLEWMGFTSPYSGVSNYNQKFKGRVTMTRDTSTSTVYMELSSLRSEDTAVYYCARFDNYDRGYVRDYWGQGTLVTVS
VL: DIVMTQSPDSLAVSLGERATINCRASESVDNDRISFLNWYQQKPGQPPKLLIYAATKQGTGVPDRFSGSGSGTDFTLTISSLQAEDVAVYYCQKSKEFPWSFGGGTKVEIKR
B2 was tested, and the “A450 ELISA” value [7] was 0.19 A450.

B3: 6G heavy chain mutant variant 8H (N101H) (antibody, V domains shown)
VH: QVQLVQSGAEVKKPGASVKVSCKASGYTFTTYAIHWVRQAPGQGLEWMGFTSPYSGVSNYNQKFKGRVTMTRDTSTSTVYMELSSLRSEDTAVYYCARFDHYDRGYVRDYWGQGTLVTVS
VL: DIVMTQSPDSLAVSLGERATINCRASESVDNDRISFLNWYQQKPGQPPKLLIYAATKQGTGVPDRFSGSGSGTDFTLTISSLQAEDVAVYYCQQSKEFPWSFGGGTKVEIKR
In the case of B3, the “A450 ELISA” value [8] is reported as 0.21 A450.

B4: 6G light chain mutant variant 10E (S95L) (antibody, V domains shown)
VH: QVQLVQSGAEVKKPGASVKVSCKASGYTFTTYAIHWVRQAPGQGLEWMGFTSPYSGVSNYNQKFKGRVTMTRDTSTSTVYMELSSLRSEDTAVYYCARFDNYDRGYVRDYWGQGTLVTVS
VL: DIVMTQSPDSLAVSLGERATINCRASESVDNDRISFLNWYQQKPGQPPKLLIYAATKQGTGVPDRFSGSGSGTDFTLTISSLQAEDVAVYYCQQLKEFPWSFGGGTKVEIKR
B4 was tested, and the “A450 ELISA” value [7] was 0.12 A450.

B5: 6G light chain mutant variant 6E (E97P) (antibody, V domains shown)
VH: QVQLVQSGAEVKKPGASVKVSCKASGYTFTTYAIHWVRQAPGQGLEWMGFTSPYSGVSNYNQKFKGRVTMTRDTSTSTVYMELSSLRSEDTAVYYCARFDNYDRGYVRDYWGQGTLVTVS
VL: DIVMTQSPDSLAVSLGERATINCRASESVDNDRISFLNWYQQKPGQPPKLLIYAATKQGTGVPDRFSGSGSGTDFTLTISSLQAEDVAVYYCQQSKPFPWSFGGGTKVEIKR
In the case of B5, the “A450 ELISA” value [7] is reported as 0.2 A450.

B6: 6G heavy chain mutant variant 7D (N101C) (antibody, V domains shown)
VH: QVQLVQSGAEVKKPGASVKVSCKASGYTFTTYAIHWVRQAPGQGLEWMGFTSPYSGVSNYNQKFKGRVTMTRDTSTSTVYMELSSLRSEDTAVYYCARFDCYDRGYVRDYWGQGTLVTVS
VL: DIVMTQSPDSLAVSLGERATINCRASESVDNDRISFLNWYQQKPGQPPKLLIYAATKQGTGVPDRFSGSGSGTDFTLTISSLQAEDVAVYYCQQSKEFPWSFGGGTKVEIKR
B6 was tested, and the “A450 ELISA” value [7] was 0.31 A450.

B7: 6G light chain mutant variant 7E (Q94R) (antibody, V domains shown)
VH: QVQLVQSGAEVKKPGASVKVSCKASGYTFTTYAIHWVRQAPGQGLEWMGFTSPYSGVSNYNQKFKGRVTMTRDTSTSTVYMELSSLRSEDTAVYYCARFDNYDRGYVRDYWGQGTLVTVS
VL: DIVMTQSPDSLAVSLGERATINCRASESVDNDRISFLNWYQQKPGQPPKLLIYAATKQGTGVPDRFSGSGSGTDFTLTISSLQAEDVAVYYCQRSKEFPWSFGGGTKVEIKR
With B7 the “A450 ELISA” value [7] was 0.18 A450.

B8: 6G light chain mutant variant 5B (Q94G) (antibody, V domains shown)
VH: QVQLVQSGAEVKKPGASVKVSCKASGYTFTTYAIHWVRQAPGQGLEWMGFTSPYSGVSNYNQKFKGRVTMTRDTSTSTVYMELSSLRSEDTAVYYCARFDNYDRGYVRDYWGQGTLVTVS
VL: DIVMTQSPDSLAVSLGERATINCRASESVDNDRISFLNWYQQKPGQPPKLLIYAATKQGTGVPDRFSGSGSGTDFTLTISSLQAEDVAVYYCQGSKEFPWSFGGGTKVEIKR
With B8 the “A450 ELISA” value [7] was 0.14 A450.

Source: patent publication US20110044985A1 (RINAT NEUROSCIENCE, published 2011)
